For test [1], the target named is T1, MICB-derived octapeptide VLQSQRTD (soluble) (Homo sapiens).
T1 construct: stalk octapeptide starting at position V302 and ending N-terminally of the annotated transmembrane domain; also called immunization peptide
T1 chain: VLQSQRTD
Nature of the test: SPR; antibodies (2 μg/mL) immobilised on an IgG-capture sensor chip; peptides as analyte, 0.5-100 nM octapeptide or 1-200 μM 13-aa peptide; single-cycle kinetics; HBS-EP pH 7.4, 30 μL/min; Sierra SPR-24 Pro. The settings on record: both partners purified. (Surface plasmon resonance follows binding to a sensor surface in real time, without labels.)

Test [2] deals with T2, MICB-derived octapeptide VLQSQRTD (soluble) (human).
T2 peptide: VLQSQRTD
Nature of the test: SPR.

B1: monoclonal antibody clone 12F7 (antibody, V domains shown)
VH: QVQLQQSGAELVRPGTSVKVSCKASGYAFTNYLIEWIKQRPGQGLEWIGVINPRSGGTNYNEKFKGKATLTADKSSITVYMQLSSLTSDDSAIYFCVRSESYGDYGAWFAYWGQGTLVTVSA
VL: DIVLTQSPASLAVSLGQRATISCRASESVDSYGNSFMHWYQQKPGQPPKLLIDRASNRESGIPARFSGSGSRTDFTLTINPVEADDVATYYCQQSNEDPFTFGSGTKLEIK
notes: variable heavy domain of clone 12F7; constant region of the murine heavy chain; variable light domain of clone 12F7; constant region of the murine light chain; also called 12-F7-C12-E3; mAb 12F7; source: mouse hybridoma (ProteoGenix), purified by protein A/G
As to B1, in test [1], the equilibrium dissociation constant (Kd) (as a rule, the free concentration of one partner at which half of the binding sites on the other are occupied at equilibrium, for simple one-to-one binding) was found to be 3.85 nM. Further, in test [2], the off-rate constant (koff) (commonly a measure of how fast the partners let go of each other) stood at 0.00536 s⁻¹.

The record behind these values is PMC12495166, “Enhanced solid tumor cell targeting by a neoepitope-encoding oncolytic measles virus combined with CAR therapy” (Molecular Therapy Oncology, 2025).
